assay: yeast display, Sf9 membrane polyspecificity reagent, FACS + sequencing; frameworks hold sequencing errors
How it was run: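 Nanobodies came from a synthetic yeast display library in Saccharomyces cerevisiae BJ5465, induced with galactose for 36–48 hours and stained for 1 hour at 4 °C with 10% biotinylated, detergent-solubilized Sf9 membrane reagent. Cells were enriched on streptavidin microbeads and then FACS-sorted, with low and high (top ~1%) gates set on anti-HA fluorescence for expression and streptavidin fluorescence for reagent binding. Each polyreactivity label reflects the gate a clone came from. Genes were amplified by colony PCR, sequenced by MiSeq 2 × 250 and filtered by CDR length.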

| Sequence | polyreactivity (PSR sort gate) |
| --- | --- |
| QVQLVESGGGLVQAGGSLRLSCAASGRTFALYAMAWYRQAPGKERELVASISWRGGSTYYADSVKGRFTISRDNAKNTVYLQMNSLKPEDTAVYYCAADTWSYGPLNYRLEYWGQGTQVTVSS | low polyreactivity |
| QVQLVESGGGLVQAGGSLRLSCAASGRTFALYAMGSYRQAPGKERELVAGITFRGGSTYYADSVKGRFTISRDNAKNTVYLQMNSLKPEDTAVYYCAAVPRVNLSRYVYFWYDYWGQGTQVTVSS | high polyreactivity |
| QVQLVESGGGLVQAGGSLRLSCAASGRTFANYAMGWYRQAPGKERELVAAISVSTVSTYYADSVKGRFTISRDNAKNTVYLQMNSLKPEDTAVYYCAATSPYKYWYRYNYWGQGTQVTVSS | high polyreactivity |
| QVQLVESGGGLVQAGGSLRLSCAASGRTFAPYAMAWYRQAPGKERELVAVISSSGGRTYYADSVKGRFTISRDNAKNTVYLQMNSLKPEDTAVYYCAADVYGYRFFKTGRYDYWGQGSQVTVSS | high polyreactivity |
| QVQLVESGGGLVQAGGSLRLSCAASGRTFAQYVMGWYRQAPGTERELVAAISGIGGSTYYADSVKGRFTISRDNAKNTVYLQMNSLNPEDTAVYYCAVELYWYPGYDYWGQGTQVTVSS | low polyreactivity |
| QVQLVESGGGLVQAGGSLRLSCAASGRTFARNAMGRYRQAPVKERELVAVISKGGSRTYYADSVKGRFTISRDNEKNTVYLQMNSLKPEDTAVYYCAARHYVTRDESYDYWGQVTQVTVSS | high polyreactivity |
| QVQLVESGGGLVQAGGSLRLSCAASGRTFARNAMGWYRQAPGKERELVAAITSGGSTNYADSVKGRFTISRDNAKNTVYLQMNSLIPEDTAVYYCAADGAQYYYGRYYYWGQGTQVTVSS | high polyreactivity |
| QVQLVESGGGLVQAGGSLRLSCAASGRTFARYAMGWYRQAPGKERELVAAISWSGGSTYYADSVKGRFTISRDNAKNTVYLQMNSLKPEDTAVYYCAAGYGARSAIFDVYGTNEGDYWGQGTQVTVSS | high polyreactivity |
| QVQLVESGGGLVQAGGSLRLSCAASGRTFARYAMGWYRQAPWKERELVAAISRGGDSTYYADSVKGRFTISRDNAKNNVYLQMNSLKPEDTADYYCNAYVILALGYGGYDYWGQGTQVTVSS | high polyreactivity |
| QVQLVESGGGLVQAGGSLRLSCAASGRTFASNAMGWYRQAPGKERELVAAISSAGGTNYADSVKGRFTISRDNAKNTVYLQMNSLKPEDTAVYYCAAASPYYSYHRYIYYYWGQGTQVTVSS | high polyreactivity |
| QVQLVESGGGLVQAGGSLRLSCAASGRTFASNVMGWYRQAPGKERELVAAISRRGGSTYYADSVKGRFTISRDNAKNTVYLQMNSLKPEDTAVYYCNAVLYHLTYDYWGQGTQVTVSS | high polyreactivity |
| QVQLVESGGGLVQAGGSLRLSCAASGRTFASYAMGWYRQAPGKERELVAVITRGGRTYYADSVKGRFTISRDNAKNTVYLQMNSLKPEDTAVYYCNAAYYSSSYLEDSWGQGTQVTVSS | high polyreactivity |
| QVQLVESGGGLVQAGGSLRLSCAASGRTFASYMGWYRQAPWKERELVAAINWSGGTTYYADSVKGRFTISRDNAKNSVYLQMNSLKPEDTAVYYCNKLGYQSRGDYWGQGTQVTVSS | high polyreactivity |
| QVQLVESGGGLVQAGGSLRLSCAASGRTFASYVMGWYRQAPGKERELVASITRTGSTYYADSVKGRFTISRDNAKNTVYLQMNSLKPEDTAVYYCNAATFYRRSSTRGFNYWGQGTQVTVSS | high polyreactivity |
| QVQLVESGGGLVQAGGSLRLSCAASGRTFATYSMGRYIQAPGKERELVAAISRSGSTTYYADSVKGRFTISRDNAKNTVYLQMNSLKPEDTAVYYCNAKFRKADYDYWGQGTQVTVSS | high polyreactivity |
| QVQLVESGGGLVQAGGSLRLSCAASGRTFAYNAMGWYRQAPGKERELVAAISSSGGSTYYADSVKGRFTISRDNAKNTVYLQMNSLKPEDTAGYYCATQGFSWAHGSDYWGQGTQVTVSS | low polyreactivity |
| QVQLVESGGGLVQAGGSLRLSCAASGRTFAYNAMGWYRQAPGKERELVAANTDSDGNTNYADSVKRRFTISRDNAKNTVYVLLNSLIPEDTAVDYCAADYIILVHVTRGFGYEYWGQGTQVTVSS | low polyreactivity |
| QVQLVESGGGLVQAGGSLRLSCAASGRTFAYYAMGWYKQAPGKERELVAAISWSGGSTYYADSVKGRFTISRDNAKYTVYLQMNSLKPEDTAVYYCNTLGGTEYGYWGQGTQVTVSS | high polyreactivity |
| QVQLVESGGGLVQAGGSLRLSCAASGRTFAYYAMGWYRQAPGKERELVAAISTSGTRTYYADSVKGRFTISRDNAKNTVYLQMNSLKPEDTAVYYCAARYRYQYEFDYWGQGTQVSVSS | high polyreactivity |
| QVQLVESGGGLVQAGGSLRLSCAASGRTFAYYAMGWYRQAPGKERELVATITWNGGSTYYADSVKGRFTISRDNAKNTVYLQMNSLKPEDTAVYYCAVRLWFDYNYWGQGTQVTVSS | low polyreactivity |
| QVQLVESGGGLVQAGGSLRLSCAASGRTFAYYAMGWYRQAPGTERELVATINSAGCTYYADSVKGRFTISRDNAKNTVYLQMNSLKPEDTAVYYCNAAYKSQVRYRRYIYWGQGTQVTVSS | high polyreactivity |
| QVQLVESGGGLVQAGGSLRLSCAASGRTFAYYTMGWYRQAPGKERELVAAITSSGGSTYYADSVKGRFTISRDNAKNTVYLQMNSLKPEDTAVYYCNAYGLRWASRLGYDYWGQGTQVTVSS | high polyreactivity |

| Sequence | polyreactivity (PSR sort gate) |
| --- | --- |
| QVQLVESGGGLVQAGGSLRLSCAASGRTFAYYVMGWYIQAPGTERELVAAISWSAGCTYYADSVKGRFTISRDNAKNTVYLQMNSLIPEDTAVDYCAADYRFRYEYWGQGTQVTVSS | low polyreactivity |
| QVQLVESGGGLVQAGGSLRLSCAASGRTFCVNAMGWSRQAPGKERELVAAITGGGSTYYADSVKGRFTISRDNAKNTVYLQMNSLKPEDTAVYYCNADRRRRSGGFAGWHFQRNDYWGQGTQVTVSS | low polyreactivity |
| QVQLVESGGGLVQAGGSLRLSCAASGRTFCYYTMVWYRQAPGKEREMVASISRVTSTYYADSVKGRFTISRDNAKNTVDLQMNSVKPEDTAVYYCAADRTRYYVGYRWTGNKMVYWGQGTQVTLSS | low polyreactivity |
| QVQLVESGGGLVQAGGSLRLSCAASGRTFDAYAMGWYRQAPGKERELVAAIRRGSSTNYADSVKGRFTISRDNAKNTVYLQMNSLKPEDTAVYYCAARRQWLGIRTGYNYWGQGTQVTVSS | high polyreactivity |
| QVQLVESGGGLVQAGGSLRLSCAASGRTFDDNAMGWYRQAPGKERELVAAISSTGSTNYADSVKGRFTISRDNAKNTVYLQMNSLKPEDTAVYYCNTDRGHERAYYYWGQGTQVTVSS | low polyreactivity |
| QVQLVESGGGLVQAGGSLRLSCAASGRTFDEYAMGWYRQAPGKERVLVAAIDSGGSTTYADSVKGRFTISRDNAKNTVYLQINSLKPEDTAVYYCAASYPYWYITPRKFEYWGQGTQVTVSS | low polyreactivity |
| QVQLVESGGGLVQAGGSLRLSCAASGRTFDEYAMVWYRQAPGKERELVAAINSSGNTYYADSVKGRFTISRDNAKNTVYLQMNSLKPEDTAVYYCAVRSYNTISDDMDYWGQGTQVTVSS | low polyreactivity |
| QVQLVESGGGLVQAGGSLRLSCAASGRTFDGYAMGWYRQAPGKEREMVAAISRGGGNTRYADSVKGRFTISRDNAKNTVYLQMNSLKPEDTAVYYCNKLSFFPYITDEYWGQGTQVTVSS | high polyreactivity |
| QVQLVESGGGLVQAGGSLRLSCAASGRTFDLNDMGWYRQAPGKEREFVADIDWSGGNTYYADSVKGRFIISRDNAKNTVYLQMNSLKPEDTAVYYCNARRKRSYDYWGQGTQVTVSS | low polyreactivity |
| QVQLVESGGGLVQAGGSLRLSCAASGRTFDLNVMGWSRQAPGKERELVAASSFSGGSTYYADSVKGRFTLSRDNAKNTVYLQMNSLKPEDTAVYYCAADGYVRPPEMDYWGQGTQVTVSS | high polyreactivity |
| QVQLVESGGGLVQAGGSLRLSCAASGRTFDNYAMGWYRQAPGKERELVAAISSSGGRTYYADSVKGRFTISRDNAKNTVYLQMNSLKPEDTAVYYCAAVWPVYRTHPGMDYWGQGTQVTVSS | high polyreactivity |
| QVQLVESGGGLVQAGGSLRLSCAASGRTFDPNAMGWYRQAPGKERELVAAIRWTGTSTYYADSVKGRFTISRDNAKNTVYLQMNSLKPEDTAVDYCNARGSYRLRYDYWGQGTQVTVSS | high polyreactivity |
| QVQLVESGGGLVQAGGSLRLSCAASGRTFDPYAMGWYRQAPGKERELVAAITSGDDTYYADSVKGRFTISRDNAKNTVYLQMNSLKPEDTAVYYCAADSFTPDYYSHDYWGQGTQVTVSS | low polyreactivity |
| QVQLVESGGGLVQAGGSLRLSCAASGRTFDRNAMGWYRKAPGKERELVARITIDGSTNYADSVKGRFTISRDNAKNTVYLQMNSLKPEDTGVYYCAAYSASYGGYDYWGQGTQVTVSS | high polyreactivity |
| QVQLVESGGGLVQAGGSLRLSCAASGRTFDRNTMGWYRQAPGKERELVAAISSSGGSTYYADSVKGRFTISRDNAKNTVYLQMNSLKPEDTAVYYCAVLSRQYFRYGYDYWGQGTQVTVSS | high polyreactivity |
| QVQLVESGGGLVQAGGSLRLSCAASGRTFDRYAMGWYRQAPGKEREFVAVISSSGVRTNYADSVKGRFTISRDNAKNTVYFQMNSLKPEDTAVYYCAAVFWFRSLSGYIYDYWGQGTQVTVST | low polyreactivity |
| QVQLVESGGGLVQAGGSLRLSCAASGRTFDSYAMGWYRQAPGKERELVAAISRAGGTNYADSVKGRFTISRDNAKLTVYLQMNRLKPDDTEVYYCAVRQAVYGLRSDFYYWGQGSQVTVSS | high polyreactivity |
| QVQLVESGGGLVQAGGSLRLSCAASGRTFDVYAMGWDRQAPGKERELVAASTSGGSTYYADSVKGRFTISRDNAKNTVYLQMNSLKPEDTAVYYCATDVDKSLYDYWGQGTQVTVSS | low polyreactivity |
| QVQLVESGGGLVQAGGSLRLSCAASGRTFDVYAMGWYRQAPGKERELVATISRSGGSTYYADSVKGRFTISRDNAKNTVYLQMNSLKPEDTAVYYCAARKRSPPYGYWGQGTQVTVSS | high polyreactivity |
| QVQLVESGGGLVQAGGSLRLSCAASGRTFDWYAMGLYRQAPGKERELVAAISWSGGSTYYADSVKGRFTISRDNAKNTVYLQMNSLKPEDTAVYYCATDSYTEQSWVAEGYSGQGTQVTVSS | low polyreactivity |
| QVQLVESGGGLVQAGGSLRLSCAASGRTFDWYVMGWYRQAPGKERELVASIPGTGSTYYADSVKGRFTISRDNAKNTVYLQMNSLKPEDTAVYYCNVAWIWGKYDYWGQGTQVTVSS | high polyreactivity |
